From patent US20090099072A1 (LES LABORATOIRES SERVIER, published 2009)

How the values were obtained:
Bcl-2 = target: T1, Bcl-2 (UniProt P10415-1 1-211, limits assumed); experiment: fluorescence polarisation competition; tracer Bak BH3 carboxyfluorescein 15 nM, Bcl-2 1 µM
T1 construct: also called anti-apoptotic member of the Bcl-2 protein family
Protocol: (§1) The following reagents are mixed together in the order stated: [0089] a) competitor peptide at a final concentration of from 1 nM to 100 μM; [0090] b) fluorescent peptide ligand (Bak BH3 carboxyfluorescein) at a final concentration of 15 nM; [0091] c) anti-apoptotic member of the Bcl-2 protein family at a final concentration of 100 nM for Bcl-XL and of 1 μM for Bcl-2 and Bcl-W.
(§2) The mixture is then incubated for 30 minutes at ambient temperature and the fluorescence polarisation is determined on a Fusion apparatus (Packard) (excitation at 485 nm and reading at 530 nm). The values are given in mP (unit of fluorescence polarisation).

Bcl-W = target: T2, Bcl-W (UniProt Q92843-1 1-172, limits assumed); experiment: fluorescence polarisation competition; tracer Bak BH3 carboxyfluorescein 15 nM, Bcl-W 1 µM
T2 construct: also called anti-apoptotic member of the Bcl-2 protein family
T2 sequence (looked up): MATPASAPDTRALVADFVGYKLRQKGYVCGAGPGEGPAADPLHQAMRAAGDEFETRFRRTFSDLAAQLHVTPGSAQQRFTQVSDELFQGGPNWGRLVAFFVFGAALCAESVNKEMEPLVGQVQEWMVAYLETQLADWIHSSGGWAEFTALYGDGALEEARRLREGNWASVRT
Protocol: as §1, §2

Bcl-XL = target: T3, Bcl-XL (UniProt Q07817-1 1-209); experiment: fluorescence polarisation competition; tracer Bak BH3 carboxyfluorescein 15 nM, Bcl-XL 100 nM
T3 construct: also called anti-apoptotic member of the Bcl-2 protein family
T3 sequence (Q07817 1-209): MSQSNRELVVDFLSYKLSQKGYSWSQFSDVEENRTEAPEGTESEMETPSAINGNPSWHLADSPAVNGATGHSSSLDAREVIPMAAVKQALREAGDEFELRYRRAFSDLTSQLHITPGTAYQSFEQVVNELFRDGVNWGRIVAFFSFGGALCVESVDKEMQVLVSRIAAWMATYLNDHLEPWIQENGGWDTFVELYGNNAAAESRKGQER
Protocol: as §1, §2

T1 sequence (P10415 1-211 limits assumed): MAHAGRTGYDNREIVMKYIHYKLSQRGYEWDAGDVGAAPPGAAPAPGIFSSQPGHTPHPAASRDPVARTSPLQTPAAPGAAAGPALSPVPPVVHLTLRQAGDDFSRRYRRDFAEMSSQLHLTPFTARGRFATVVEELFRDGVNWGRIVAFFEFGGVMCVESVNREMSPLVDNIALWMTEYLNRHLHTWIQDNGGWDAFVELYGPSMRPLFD

B1: Beclin peptide, motif GTMENLSRRLKVTGDLFDIMSGQTDV of the Beclin protein (peptide)
peptide: GTMENLSRRLKVTGDLFDIMSGQTDV
Ki (Bcl-2): 1800 nM
Ki (Bcl-W): 7400 nM
Ki (Bcl-XL): 1150 nM
